{
  "source": "paper PMC10980163",
  "about": "“Integrin-linked kinase-frizzled 7 interaction maintains cancer stem cells to drive platinum resistance in ovarian cancer” (Research Square, 2024)",
  "binders": {"B1": {"name": "recombinant human full-length ILK (enzyme, UniProt Q13418 1-452, looked up)", "chain": "MDDIFTQCREGNAVAVRLWLDNTENDLNQGDDHGFSPLHWACREGRSAVVEMLIMRGARINVMNRGDDTPLHLAASHGHRDIVQKLLQYKADINAVNEHGNVPLHYACFWGQDQVAEDLVANGALVSICNKYGEMPVDKAKAPLRELLRERAEKMGQNLNRIPYKDTFWKGTTRTRPRNGTLNKHSGIDFKQLNFLTKLNENHSGELWKGRWQGNDIVVKVLKVRDWSTRKSRDFNEECPRLRIFSHPNVLPVLGACQSPPAPHPTLITHWMPYGSLYNVLHEGTNFVVDQSQAVKFALDMARGMAFLHTLEPLIPRHALNSRSVMIDEDMTARISMADVKFSFQCPGRMYAPAWVAPEALQKKPEDTNRRSADMWSFAVLLWELVTREVPFADLSNMEIGMKVALEGLRPTIPPGISPHVCKLMKICMNEDPAKRPKFDMIVPILEKMQDK", "notes": "Integrin-linked kinase (ILK), human, recombinant, full length; also called full-length recombinant ILK"}},
  "target": "T1, recombinant human full length Fzd7 (human, UniProt O75084 33-574)",
  "T1 construct": "also called full-length recombinant Fzd7",
  "test": "co-IP; recombinant human full-length Fzd7 and ILK mixed 1:1 in lysis buffer, incubated overnight at 4 °C with antibody (anti-Fzd7 in Fig. 4D); Western blot for ILK and Fzd7",
  "conditions": "both partners purified",
  "data": [
    {"binder": "B1", "values": [
      {"measurement": "binding result", "value": "binds"}
    ]}
  ]
}
